# Source: US20220380446A1 (ABL BIO, published 2022)
# Tests used:
# [1] = target: T1, human α-synuclein pre-formed fibrils (Human Alpha Synuclein Pre-formed Fibrils Type II, StressMarq SPR-317) (human, UniProt P37840 1-140); assay: sandwich ELISA, antibody coated, α-syn PFF added, 7B7-biotin detection
# Experimental: Specifically, the antibodies were diluted with PBS by six-fold serial dilution from 400 nM to 0.009 nM. The diluted antibodies were added to a 96-well plate at 100 μL/well for coating. The plate was sealed and incubated at 4° C. for 16 hours. After washing with phosphate-buffered saline with Tween® (PBS-T; 0.05% Tween® 20) five times, the plate was blocked with 5% BSA in PBS 200 μL/well at 37° C. for 2 hours. After washing with PBS-T five times, α-syn PFF (2 μg/mL, 100 μL/well in 2% BSA in PBS) was added to the plate and incubated at 37° C. for 2 hours. After washing with PBS-T five times, 7B7-biotin antibody (anti-α-syn antibody; 1 μg/mL/100 μL/well, in 2% BSA in PBS) was added and incubated at 37° C. for 2 hours. After washing with PBS-T five times, the plate was incubated with horseradish peroxidase (HRP)-bound streptavidin in PBS with 2% BSA (1:5000, 1 mg/mL stock, 20 ng/well, 100 μL/well) at 37° C. for 1 hour. After washing with PBS-T five times, 3,3′,5,5′-tetramethylbenzidine (TMB) (100 μL/well) was added and incubated at room temperature for 5 minutes. The reaction was stopped by the addition of 0.5 N H₂SO₄ (50 μL/well). Optical absorbance at 450 nm was measured by using a plate reader, with absorbance at 650 nm subtracted from the reading.
# [2] = target: T1, human α-synuclein pre-formed fibrils …; assay: SPR Biacore T200, antibody captured on Protein A chip, α-syn PFF analyte, 1:1 model
# Experimental: The equipment used was Biacore® (GE Healthcare, Model T200). Protein A (GE Healthcare, Cat: 29-1275-56) was used as a chip, 10 mM glycine-HCl pH 1.5 (GE Healthcare, Cat: BR-1003-54) was used as a regeneration buffer, and HBS-EP was used as a running buffer and an analyte dilution and sample dilution buffer. […] A capture phase was carried out at a contact time of 60 seconds and a flow rate of 30 μL/min was used for a stabilization period of 60 seconds, with the target resonance units (RU) of fibril set to 10 (theoretical). In an association phase, the association time was set to 60 seconds and a flow rate was set to 60 μL/min. In a dissociation phase, the dissociation time was set to 180 seconds, and a flow rate was set to 60 μL/min. In a regeneration phase, the flow rate was set to 30 μL/min, and the regeneration time was set to 60 seconds. A 1:1 binding model was used for fitting, and the Biacore® T200 Evaluation software (GE Healthcare) was used for the evaluation.
# [3] = target: T1, human α-synuclein pre-formed fibrils …; assay: SPR Biacore, antibody captured on anti-hFab CM3 chip, α-syn PFF analyte, single-cycle kinetics, 1:1 model
# Experimental: The equipment used was Biacore®. Anti-hFab (Sigma, I5260-1ML) diluted in acetate buffer (pH 5.0) was immobilized on the surface of an CM3 chip (GE Healthcare) by amine coupling. […] All procedures in association and dissociation phases were done in single-cycle kinetics. A 1:1 binding model was used for fitting, and the Biacore® T200 Evaluation software was used for the evaluation.
# [4] = target: T1, human α-synuclein pre-formed fibrils …; assay: SPR (Biacore), file name 'Main-ProA', α-syn PFF as analyte (sample PFF-4), single-cycle kinetics, 1:1 Binding fit, 25 °C; Run02
# [5] = target: T2, monomeric human α-synuclein (Active Human Recombinant Alpha Synuclein Protein Monomer type II, StressMarq … (human, UniProt P37840 1-140)); assay: SPR (Biacore T200), antibody captured on Protein A chip, α-syn monomer as analyte (Monomer-1), 25 °C; Run01; number of the software's 1:1 fit printed under a sensorgram without binding response (the filing's Table 18: No-binding)
# Experimental: (§1) The equipment used was Biacore® T200. The anti-α-syn monospecific antibody or the anti-α-syn/IGF1R bispecific antibody was diluted with 1×HBS-EPT. […] Each diluted monomer sample was injected at 60 μL/min onto the Protein A chip surface for 60 seconds, followed by washing with 1×HBS-EP buffer. The dissociation rate was evaluated for 180 seconds. All procedures in association/dissociation phases were done in single cycle kinetics. The chip surface was regenerated by injecting 10 mM glycine-HCl pH 1.5 (GE Healthcare) onto the chip surface for 60 seconds at 30 μL/min, removing residual α-syn monomer/antibody complex. A 1:1 binding model was used for fitting, and the Biacore® T200 Evaluation software was used for evaluation.
# [6] = target: T2, monomeric human α-synuclein (Active …); assay: SPR (Biacore T200), antibody captured on Protein A chip, α-syn monomer as analyte (Monomer-4), 25 °C; Run02; number of the software's 1:1 fit printed under a sensorgram without binding response (the filing's Table 18: No-binding)
# Experimental: as §1
binder,measurement,setting,value
"hu1E4(V1_VL1) x Grabody B (bispecific antibody, human IgG1, kappa, Anti-α-syn/IGF1R bispecific; hole heavy chain (M428L) carries the anti-IGF1R scFv Grabody B at its C-terminus through a (G4S)3 linker; knob heavy chain (M428L) without scFv; also called hu1E4(V1 VL1) × Grabody B; 1E4(Ver.1_VL1) × Grabody B) heavy 1: not shown heavy 2: not shown light: DIVMTQTPLSLSVTPGQPASISCRSSQSLVHSNGNTYLHWYLQKPGQSPQLLIYKVSNRFSGVPDRFSGSGSGTDFTLKISRVEAEDVGVYYCSQSTHVPRTFGQGTKLEIKRTVAAPSVFIFPPSDEQLKSGTASVVCLLNNFYPREAKVQWKVDNALQSGNSQESVTEQDSKDSTYSLSSTLTLSKADYEKHKVYACEVTHQGLSSPVTKSFNRGEC",EC50,[1],0.236 nM
same,Kd,[2],0.0281 nM
same,koff,[2],0.000322 s⁻¹
same,kon,[2],1.14e+07 M⁻¹ s⁻¹
same,Kd,[3],0.0379 nM
same,koff,[3],0.000706 s⁻¹
same,kon,[3],1.87e+07 M⁻¹ s⁻¹
same,koff,[4],0.000219 s⁻¹
same,kon,[4],1.44e+07 M⁻¹ s⁻¹
same,koff,[5],2.23 s⁻¹
same,kon,[5],3.57e+07 M⁻¹ s⁻¹
same,koff,[6],0.537 s⁻¹
same,kon,[6],46900 M⁻¹ s⁻¹
